Measurements: the supplement of paper PMC12455559

Assay: purified protein yield per well (BCA); higher = higher soluble expression
How it was run: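 Candidate enzymes were made in 2 mL autoinduction cultures of E. coli C41(DE3) with 100 µg/mL kanamycin, at 37 °C for 2 h and then 18 °C for 40 h, and purified with Ni-charged magnetic beads and SUMO protease cleavage. The Pierce Rapid Gold BCA kit gave purified protein yield per well. Values lower than 25 ug (0.1 mg/mL) are below the detection threshold.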

APQAPENPYQRGPAPTEQSIVADRGSFEVERISVGSWSGPGFNKGTIYAPKDRSQGTFGAIAVSPGFVSPEYLISWYGERLASRGFVVMTIETTTLYDQPAQRGDQLLAALDYVVSDDSPVRDRVDPNRLAVMGHSMGGGGTLHAVKERKSLKAAVPLMPWNLFTDWGDVQTPTMIIGAQNDLIASVGLHSEPFYNSLRSAREKAYLEMDGAGHLVANSPNDTIAKYTIAWMKRYVDNDTRYEQFLCPAPSRDRNISEYRDTCPGS [DP015]
purified protein yield per well: < 25 µg

APVAVAPAAVPVHGVDPTDANLRQPVGDLAFSQVTIADSQTPGFGAATIYYPDDTTHGTYGGVAVVPGYTSPQSAVAWLGPRLASRGFVVITIATNSIYDQPTTRGRELLSALDYLTTSSPAAVRQRLDPQRLAVMGHSMGGGGALYAVSQRTTIKAAVPLAPYNQDKTWQTVKTPTMLMAGSADNVAGIGTFSRPFYRSMTGARERALVNVQGADHGTFVRENATIGKYATAWLKRFVDEDTRYDQFLCPAPTGDGLTEYTASCPNA [DP012]
purified protein yield per well: < 25 µg

AQPQKGPDPTEQLVKSQTGPFDIARTSVPAGSGRGFNKGTLYYPTDTSQGAYAAVAVIPGFFEGEYTQSWFGPALASHGFVVFTLETHGLFDFPDQRGDQLIAALDWLVASSPVKDRVDPARLAVMGHSMGGGGTLAAANKRPSIKAAVALTPWHMTKRFPGIEAATMIIGAQSDSIASVSGHAEPMYAALTSPDEHAYVELTGGHFVTNSYTATNMRFILPWLKRFLDSDTRYSPFVCPGPAQDSTFVEYRNTCPV [TEP047]
purified protein yield per well: < 25 µg

AQQTILQESFNSSLGSFTSAGSVSVGSSGALMRGSAYSTDGRITSAAVSTQGLTNIVLSFTSATSGLDLGEAAIVSYSTNGSSYTTVSSERYATGSFTFNLGTAAANQSQLFLRFAIDASSTYETYAVDNIILTGDGEGGGTTCTTCIGPDPTVAALEAARGPFNTSSFGLSSWSVSGFGGGDIFYPTNAPAGPLAAIAICPGFLGTSETVDWWGPRLASHGFVVIVMDPNSVFDQPAQRATQLMACLDELEDQNNDSGSPIYGMVDSNRVGLMGHSMGGGGTLIATEDNPSVIKAAIPMAPWNMLSSNFSDITTPTLVIACEADLIAPVAQHARPFYDSIPSTVPKAFLEINNGDHLAVMNGDVFEDMLGKYGVAWMKVFLDNDQRYMQFLCGPDHESDWDISDYRSSCPY [DP024]
purified protein yield per well: < 25 µg

AQSPYERGPAPTETSVRASTGPFQYAQVSVPGAGFGSGTIYYPTDTGQGTFGGVAVSPGFLSPEILIAWLGPKLASNGFVVITISTNNPGDQPDSRGEQLLAALNYLATQSPAAVRQRLDPGRLSVIGHSMGGGGALRAADSRPDLQAAIPLGGWHTNKNWSNIRVPTMVIGAQNDFIAPNDQHSQRFYTSITQAPEKAYLRPVGTGHVNVGTGTPVVGKFVLSWLKRFVDDDTRYDQFLCPTPSGSDLVEYHSTCPHT [DP014]
purified protein yield per well: < 25 µg

ASLSIGGEYQVLTYTDFPDVPEFGDATIYYPLETPGTVGGVAIAPGFTERQSHIEWWGPRLASHGFAVLVLDTNERRAMPDARGDALLAAVEVLRRESAREGSPLFGRVATDKMAIMGHSMGGGGALLAANEHSDQIQAAIPFTPWEPQAVFQDITVPTLVLAGSVDRLARVDNHAWRHYQSIPESTPKAYLEVGGGNHYIADTERGTDLETI [TEP137]
purified protein yield per well: < 25 µg

ASPYERGPDPSRTSIEARRGPFAVTSTSVSDLSTPGFGSATITYPTSTAEGTYGAVAVSPGFTASESTIAWLGPRLASQGFVVITFNTQSRLDQPAARGDQLLAALDYLTQRSSTTIRSRIDPTRLAVIGHSMGGGGTLEAAKDRPSLQATVGLTPWNLDKSWPEIRTPSLVIGAESDTVAPVGSHAVPFYQSIPSSTAKAYLELNNASHFAPNTENTTIASSTISWLKLYVDDDDRYRQFLCPGPQSSVTGSVSDYRNTCTS [DP050]
purified protein yield per well: < 25 µg

ATASFQRGPAPSAASIRATDGPFAITRTNVARAAVSGFGGGDIYAPDDTSQGTFGAVAIAPGFTATRSSMAWLAPRIASQGFVVFNIDTLTTSDQPATRGRELLAALDFLTAQSTARAKIDKNRLAVMGHSMGGGGTLEAAKSRPALKAAVPLTPWDLTKNFAGVTVPTMIIGAQSDTIAPVRQHSERFFASLPSGADTGYLELAGASHFAPNIPNTTIASTSVAWLKRFVDEDTRFEQFLCPGPATGATVSEYETNCPHQG [DP071]
purified protein yield per well: < 25 µg

ATGPSAPCTNCTRGPAPTTAALKSNTGPFTTAKFSVSGLLKGFGNSTVYYPTNTTGKMGAIAVIPGFLSYEDSIEWWGPRLASHGFVVMTMNTSTIYDQPDSRATQLSKALDYVISQSNTSSSPIYGKVDSTRLGAIGWSMGGGGSLKLSTQRSLNAIIPQAPYYAGLNSFNTIKTPALILACSADAVAPVGVHASPFYNKIPSTTPKAFLEIYGGSHFCANSGYPNQDLLGLYGISWMKRFIDFDTRYSQFLCGPNHTASGTISEYRQNCPY [ESM019]
purified protein yield per well: < 25 µg

ATTAGTFGGVAISPGYTASESTIAWLGPRIASQGFVVITFNTNSRYDQPASRGDQLLAALDYLTGSSAVRARVDASRLAVMGHSMGGGGALEAAKDRPSLQAAIPLTGWNTDKTWPEVRTPTLVIGAENDSVAPVGSHSIPFYNSLTSAPERAYLELNNASHFAPNSPNTDIASSSIAWLKRYVDDDTRYTQFLCPGPSVSAFGSVSDYRATCPM [TEP154]
purified protein yield per well: < 25 µg

ATTSFRRGPDPSAASIRAANGPFAIAKTTVARQAGFGGGDIYAPTDTSRGTFGAVAIAPGFTATRSSLAWLAPRIASQGFVVFNIDTLTTSDQPAQRGRELLAALDFLTGSSTARAKIDRTRLAVMGHSMGGGGTLEAAKARPSLKAAVPLTPWDLTKNFATVKVPTMIIGAQSDTIAPPSRFSDQFFASLPAATNKGYLELAGASHFAPNIPNPTIASTSIAWLKRFVDGDTRFEQFLCPGPSSNGISEYQTNCPHKA [ESM129]
purified protein yield per well: < 25 µg

ATTTLLAESFDNGFGVFSAQGYASTDNGVAVLRGGSADGTITSGAVPAAGQTNLTLSWTQTTSRLDAGESLVVEWSTGSSWSSLSSERSSGVLSVGLPTAAASNALQLRFRVDASSYYERVDVDDVVLTAGDGGGSGNPYAKGPDPTWNSIEATTGPFEVDDYDISSFAADGFGGADVYYPSDAGSATFGGIAISPGYTASRSTVTWLGPRIASQGFVVIVIDTNSRYDQPASRGDQLLAALDQLVNDSDVSHLVDPNRLAVMGHSMGGGGSLEAADDRPSLRAIVPLQGWNSDKTWSQVQVPALLIGGENDSVAPDSSHSQRFYDSLGGEKVYLQLNNASHFASNSPNTTIASYSIAWLKRWVDEDTRYSQFVCGPDAGQGSAISDYRTTCPV [DP065]
purified protein yield per well: < 25 µg

ATVACSDCSNGFQRGTLPRVDQLESSRGPYSVKTSNVSVFARGFGGGTIHYSTDSGGQQGIIAVIPGYVSYESSIKWWGPRLASWGFTVITINTNTIYDQPNSRANQLSAAIDYVIDKGNDRSSPIYGLVDPERVGVIGWSMGGGGTLKLATDRDIDAIIPQAPWYSGLNSFSRITTPTMVIACQADAVAPVALHASIFYNQIPRSTPKAFFEIAAGSHFCGNSGYPNEDILGRNGVAWMKRFIDNDTRYNQFLCGQNFDRSLRVSDYKDTCNTY [DP094]
purified protein yield per well: < 25 µg

ATVTPIRMETRIRTSSFTRFTSTPTACAFDSPIAKAFSSVRSRIDASRLAVAGHSMGGGGTLEAAKDRPGLRAAVPLAPWNTTKNWSGNRVPTLIIGGQSDTIAAVSSHAVPFYTSLPTTPDKAYLELAGASHFFPQSANADVAMMFVSWLKRFVDGDTRYEQFLCPGPSVSGSVSRYSSTCPLASGPTPTSTTTATTGTSTTRTTTTSSGGSGGGACSASYATSNAWQGGFVGTVTVRADLALSGWQVTLALPAGTTITGSWNGVRSGSTGTVQVRNETYNGILASGQTTSFGFQGSGSPSGLTVTSCTAN [ESM108]
purified protein yield per well: < 25 µg

AVQNGPAPTSTSVNAAGTYATASSAVAASASLGFGGGTIYYPTAAGTYGVIALCPGFTATQTSVAWLAQRLATHGFVTLAMNTNNPLLDSPSSRGIQLRAAIAYLTGSSAPAAVKAHVDATRRAVYGHSMGGGGVLYALTSDKTLKAGFPMAPYNTATTSFPTITSATMILTGTGDTTAPPSTYGLPMYNSLPVTTQKAYALLTGAGHS [TEP161]
purified protein yield per well: < 25 µg

CAAQAQTSPPTSASLNATAGPLSVSTSSVSSWAARGFGGGTIYYPNATGRYGVVAISPGYTARQSSIAWLGRRLATHGFVVITIDTNSTLDQPPSRATQLMAALNHVVNNANATVRSRVDASKLAVAGHSMGGGGSLIAAENNPSLKAAYPLTPWSVSKNYSSVRVPTMIIGADGDSIASVSTHSRLFYNSLSSNVSKAYGELNNASHFTPNYTNTPIGRYAVTWMKRFVDNDTRYSPFLCGAPHDSYATRTVFDRYEDNCAY [ESM071]
purified protein yield per well: < 25 µg

CADRPPVQDEDPAPTAASLAAPLGPYRTSTATVPRGLTEAFGGGTIYYPSGRPRGDTFGGVIIAPGRNGNQGGMAWYGPLLASRGFVVFAIDTLHLKDRPAARAHELEAAMTYLTVRSPVATLVDADRLAVMGHSFGGGAALETAADRPTLRAAIPLMPYDKGREFSNVRVPTLVVAAQNDKIAPVSRHARRFYRSIPASSGKGYLEIAGTTHSSPKKPNTTLAAYVIAWLKRYVDGDERYERFLCPGPIDDPSVALYRNPCS [TEP060]
purified protein yield per well: < 25 µg

CASVASPPAATLAALSGNGSYEVMTYTDFPDVPEFGDATIYYPQDAPAPVGGVAIAPGFTEVQSHISWWGPRLASHGFAVLVLDTNDRRDRPDLRADALIAAVTLLRAENSRSGSPLNSRIDVGKMAIMGHSMGGGGVLLAANEHSDQIQAAIPFTPWVPDVEFGNITVPTLVIAGSADRIANVTDHAWRHF [TEP113]
purified protein yield per well: < 25 µg

CATAGSTTDSAPVSAASLSVDGAYEVRTYSDFPDVPEFGAATIYYPVGVPQPIGGVAIAPGFTEEQRHISWWGPRLASHGYAVLVLDTNERRERPDARASALIAGVTLLRAEGLRQGSPLFGGIDLAKMAIMGHSMGGGGALLAANEHSDQIRAAIPFTPWEPETNLGGVSAPTLVLAGAADGIAEVDEHAWRHFSMIPESTPKVYLEIAGGDHYIADTTRGTDLATVGRYAIAWLKLYVDRDERYRDFIYGE [TEP065]
purified protein yield per well: < 25 µg

CDSILFQSIASPGPYNVLSIDESDGIRNGQDYNGATIFYPEGNLYNLPSIVFVPGYSNTQFTIQNWGLFLASYGIVTMTIGTNTLIDSHIQRKDALLDALITIKQENVRSSSPLYNSLDTLKLALGGFSKGGGGAQLAASIGQNIKAVIALYPWLENISAVDLNHDVPVLIVSGNLDIIAPPSLHADVHYMYTPETTKKLKYEIAFATHDPLIGPNAGFGEVGKKTLSWLQTFLLGDSCFCPYLLDTPSNASIYMSNLNCTEISTNTYNLESNQEKKILKIIDIFGREVRPKKNMILFYIYNDQSVKKIIIK [TEP139]
purified protein yield per well: < 25 µg

CDSILSQSLTNTGPYNVLSINESDGIRNGQHYNGATIFYPEGNLTNLASMVFVPGYSNTQLSIQNWGFFLASHGIVTMTIGTNSLLDSHIKRKDALLDALVTVKQENVRVSSPLYNSLDTLKLALGGFSKGGGGAQLAASVGQNIKAIIALYPWLENISSSDLNHNVPVLIVSGSLDIIAPPSLHADVHYMYTPQTTNKLKYELAFGTHDPLTGPNAGSGEVGKKTLSWLQTFLLSDTCFCPYLLDTPNNASIYMSNLNCTEIGTNTNNLQSNTEKKLVKIIDVFGREVSPKKNMILFYVYDNQSVKKIIIK [TEP094]
purified protein yield per well: < 25 µg
